According to patent US20220305006A1, “COMPOSITIONS AND METHODS FOR THE TREATMENT OF NEUROLOGICAL DISEASES AND DISORDERS” (The Regents of the University of California, priority 2019, published 2022):

Tests used:
Test in all cases: cell-based or functional assay
[1] = target: BACE1 expressed from a transfected plasmid in 293T cells (NRG1 and PSGL1 assays)
[2] = target: Recombinant Human Cathepsin D (human) (UniProt P07339)
[3] = target: BACE in CHO-7W cells (Chinese hamster ovary cells stably transfected with wildtype human APP)

Sequence of Recombinant Human Cathepsin D (human) (P07339 65-412): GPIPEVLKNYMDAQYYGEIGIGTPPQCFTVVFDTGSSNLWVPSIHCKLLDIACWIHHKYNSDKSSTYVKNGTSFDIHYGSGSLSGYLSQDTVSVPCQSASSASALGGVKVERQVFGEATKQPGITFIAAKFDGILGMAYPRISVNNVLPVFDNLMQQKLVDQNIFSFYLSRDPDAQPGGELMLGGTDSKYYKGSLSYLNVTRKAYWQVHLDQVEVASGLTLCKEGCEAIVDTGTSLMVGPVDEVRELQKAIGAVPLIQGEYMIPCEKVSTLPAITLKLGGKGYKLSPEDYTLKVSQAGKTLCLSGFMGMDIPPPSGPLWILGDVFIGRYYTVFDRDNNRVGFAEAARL

Substance	NRG1 cleavage by BACE in co-transfected 293T cells (secreted alkaline phosphatase), EC50 [1]	PSGL1 cleavage by BACE in co-transfected 293T cells (secreted alkaline phosphatase), EC50 [1]	Cat D activity (fluorogenic substrate), IC50 [2]	decrease of BACE cleavage product sAPPβ from CHO-7W cells, EC50 [3]
BACE inhibitor 1 (statine BACE inhibitor 1) (peptide)	> 10 µM	> 10 µM	< 0.01 µM	–
recombinant sAPPα, human, amino acids 19-613 (from UniProt P05067 19-613)	> 10 µM	> 10 µM	–	< 5 µM
